Experimental data reported in publication PMC4321881.

Target: nascent chain-containing 60S ribosomal subunit (60S-RNC) (UniProt P35268)

Listerin, sequence (O94822 whole entry): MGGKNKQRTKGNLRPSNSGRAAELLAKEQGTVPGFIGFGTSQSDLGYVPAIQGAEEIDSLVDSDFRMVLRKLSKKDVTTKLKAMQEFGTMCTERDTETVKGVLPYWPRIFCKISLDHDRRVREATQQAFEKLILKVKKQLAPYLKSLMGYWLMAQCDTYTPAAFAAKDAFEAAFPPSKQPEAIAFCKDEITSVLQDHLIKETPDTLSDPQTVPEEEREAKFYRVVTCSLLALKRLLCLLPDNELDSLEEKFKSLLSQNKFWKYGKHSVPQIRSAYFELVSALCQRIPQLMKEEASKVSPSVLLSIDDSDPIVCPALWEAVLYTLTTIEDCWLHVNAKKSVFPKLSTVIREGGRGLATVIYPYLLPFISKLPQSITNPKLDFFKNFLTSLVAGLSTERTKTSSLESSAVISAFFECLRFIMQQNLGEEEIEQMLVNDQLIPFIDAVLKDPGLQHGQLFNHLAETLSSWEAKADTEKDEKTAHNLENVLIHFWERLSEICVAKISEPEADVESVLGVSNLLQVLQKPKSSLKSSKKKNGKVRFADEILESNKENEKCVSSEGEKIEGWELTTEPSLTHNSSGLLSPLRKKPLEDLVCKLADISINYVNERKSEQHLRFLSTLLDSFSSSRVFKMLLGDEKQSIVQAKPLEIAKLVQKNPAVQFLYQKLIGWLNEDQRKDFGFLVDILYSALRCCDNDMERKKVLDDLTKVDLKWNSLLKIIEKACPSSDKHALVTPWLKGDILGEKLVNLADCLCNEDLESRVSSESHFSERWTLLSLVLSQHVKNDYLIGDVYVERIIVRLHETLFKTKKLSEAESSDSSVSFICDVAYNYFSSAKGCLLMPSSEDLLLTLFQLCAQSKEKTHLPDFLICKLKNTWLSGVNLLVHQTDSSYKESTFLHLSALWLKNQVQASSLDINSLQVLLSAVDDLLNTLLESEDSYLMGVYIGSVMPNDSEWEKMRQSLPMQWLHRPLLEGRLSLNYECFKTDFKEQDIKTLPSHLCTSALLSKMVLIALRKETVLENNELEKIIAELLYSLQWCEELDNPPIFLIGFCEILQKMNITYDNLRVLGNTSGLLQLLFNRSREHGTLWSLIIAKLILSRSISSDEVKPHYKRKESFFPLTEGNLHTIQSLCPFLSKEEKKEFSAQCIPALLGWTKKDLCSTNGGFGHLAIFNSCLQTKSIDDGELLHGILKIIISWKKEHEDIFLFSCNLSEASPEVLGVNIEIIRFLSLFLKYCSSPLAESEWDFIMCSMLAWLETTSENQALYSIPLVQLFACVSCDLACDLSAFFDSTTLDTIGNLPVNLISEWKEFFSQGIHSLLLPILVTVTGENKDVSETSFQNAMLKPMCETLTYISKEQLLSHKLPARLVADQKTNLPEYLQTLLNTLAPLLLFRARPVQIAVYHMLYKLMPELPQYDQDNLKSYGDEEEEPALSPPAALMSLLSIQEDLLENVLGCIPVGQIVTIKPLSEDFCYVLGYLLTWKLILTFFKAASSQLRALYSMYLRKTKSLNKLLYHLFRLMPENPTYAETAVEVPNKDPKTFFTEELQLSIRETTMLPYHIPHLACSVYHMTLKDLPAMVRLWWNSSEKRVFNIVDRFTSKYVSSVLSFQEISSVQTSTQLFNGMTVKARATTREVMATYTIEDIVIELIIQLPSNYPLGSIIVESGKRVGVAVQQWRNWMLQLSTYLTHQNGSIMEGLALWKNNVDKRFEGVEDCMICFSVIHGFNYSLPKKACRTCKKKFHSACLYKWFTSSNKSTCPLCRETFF

poly-ubiquitination of the nascent chain-tRNA, purified NEMF titrated into reactions with 5 nM 80S-RNCs and 1.2 nM Listerin, relative to no NEMF: 3 to 5 fold
Substance: Listerin (from UniProt O94822 1-1766) (enzyme)
